Source: patent publication US20210355220A1 (TIKCRO TECHNOLOGIES, published 2021)
Substitutions are numbered along the chain they refer to.

B1: Ab55h-PM1 (antibody, V domains shown)
VH: QVQLQESGPGLVKPSETLSLTCAVSGYSISGDYYWNWIRQPPGKGLEWIGSIYHSGYTYYNPSLKSRVTISVDTSKNQFSLKLSSVTAADTAVYYCARDSGWYVIAFDYWGQGTLVTVSS
VL: EIVMTQSPATLSVSPGERATLSCRASQSVSSNLAWYQEKPGQAPRLLIYGASTRATGIPARFSGSGSGTEFTLTISSLQSEDFAVYYCQQYNNWPPLTFGGGTKVEIK
B2: Ab55h-PM2 (antibody, V domains shown)
VH: B1 VH with N36G, S55D
VL: B1 VL
B3: Ab55h-PM3 (antibody, V domains shown)
VH: B1 VH with N36G, G56A
VL: B1 VL
B4: Ab55h-PM4 (antibody, V domains shown)
VH: B1 VH with N36G, L64V
VL: B1 VL
B5: Ab55h-PM5 (antibody, V domains shown)
VH: B1 VH with N36G, D108A
VL: B1 VL
B6: Ab55h-PM6 (antibody, V domains shown)
VH: B1 VH with N36G, Y109I
VL: B1 VL
B7: Ab55h-PM7 (antibody, V domains shown)
VH: B1 VH with N36G
VL: B1 VL with V29I
B8: Ab55h-PM8 (antibody, V domains shown)
VH: B1 VH with N36G
VL: B1 VL with G50A
B9: Ab55h-PM9 (antibody, V domains shown)
VH: B1 VH with N36G
VL: B1 VL with S52T
B10: Ab55h-PM10 (antibody, V domains shown)
VH: B1 VH with N36G
VL: B1 VL with T53S
B11: Ab55h-PM11 (antibody, V domains shown)
VH: B1 VH with N36G, A106G
VL: B1 VL
B12: Ab55h-PM12 (antibody, V domains shown)
VH: B1 VH with N36G, F107Y
VL: B1 VL
B13: Ab55h-PM13 (antibody, V domains shown)
VH: B1 VH with N36G, S100V
VL: B1 VL
B14: Ab55h-PM14 (antibody, V domains shown)
VH: B1 VH with N36G, W102F
VL: B1 VL
B15: Ab55h-PM15 (antibody, V domains shown)
VH: B1 VH with N36G, W102A
VL: B1 VL
B16: Ab55h-PM16 (antibody, V domains shown)
VH: B1 VH with N36G
VL: B1 VL with N92A
B17: Ab55h-PM17 (antibody, V domains shown)
VH: B1 VH with N36G
VL: B1 VL with N93V
B18: Ab55h-PM18 (antibody, V domains shown)
VH: B1 VH with G31S, N36G
VL: B1 VL
B19: Ab55h-PM19 (antibody, V domains shown)
VH: B1 VH with N36G
VL: B1 VL with S30G
B20: Ab55h-PM20 (antibody, V domains shown)
VH: B1 VH with N36G
VL: B1 VL with S30Y
B21: Ab55h-PM21 (antibody, V domains shown)
VH: B1 VH with N36G
VL: B1 VL with W94S
B22: Ab55h-PM22 (antibody, V domains shown)
VH: B1 VH with N36G
VL: B1 VL with L97I
B23: Ab55h-PM23 (antibody, V domains shown)
VH: B1 VH with N36G
VL: B1 VL with L97F
B24: Ab55h-PM24 (antibody, V domains shown)
VH: B1 VH with N36G, S100V, Y109I
VL: B1 VL
B25: Ab55h-PM25 (antibody, V domains shown)
VH: B1 VH with N36G, S100V, W102F
VL: B1 VL
B26: Ab55h-PM26 (antibody, V domains shown)
VH: B1 VH with N36G, S100V, W102F, Y109I
VL: B1 VL
B27: Ab55h-PM27 (antibody, V domains shown)
VH: B1 VH with N36G, W102F, Y109I
VL: B1 VL
B28: Ab55h-PM28 (antibody, V domains shown)
VH: B1 VH with N36G, A106G, F107Y
VL: B1 VL
B29: Ab55h-PM-R5 (antibody, V domains shown)
VH: B1 VH with N36G
VL: B1 VL with N92G
B30: Ab55h-PM-R6 (antibody, V domains shown)
VH: B1 VH with N36G
VL: B1 VL with N93S
B31: Ab55h-PM-R9 (antibody, V domains shown)
VH: B1 VH with N36G, Y103S
VL: B1 VL

Key:
[1] = biological target: T1, human CTLA-4 expressed on cells (human, UniProt P16410 36-223); assay: flow cytometry on HEK293-hCTLA-4 cells
T1 construct: whole, on cells; On stably or transiently transfected HEK293 cells; also called hCTLA-4; HEK293-hCTLA-4 cells
T1 sequence (P16410 36-223): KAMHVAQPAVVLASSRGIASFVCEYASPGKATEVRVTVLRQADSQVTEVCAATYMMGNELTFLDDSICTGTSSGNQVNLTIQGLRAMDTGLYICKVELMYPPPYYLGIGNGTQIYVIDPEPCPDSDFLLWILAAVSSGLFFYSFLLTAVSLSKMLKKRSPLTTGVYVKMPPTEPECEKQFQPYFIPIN
Method: To test the binding of antibodies to CTLA-4 under more physiological conditions, the binding of CTLA-4 antibodies to cell-surface CTLA-4 was tested. […] The surface expression of hCTLA-4 in the obtained cell line was tested using a commercial anti-CTLA-4 antibody and compared to the parent cell line (HEK293 without transfection). […] The anti-CTLA-4 antibodies were incubated in serial dilution concentrations with the HEK293-hCTLA-4 cells for 1 hour on ice. Following a wash step, an anti-human antibody conjugated to ALEXA FLUOR® 647® was added for an additional hour. The cells were washed, and propidium iodide (PI) was added to exclude dead cells. The fluorescent signal was measured using FACS and analyzed. Dead cells were removed based on the PI signal. The population was gated based on forward and side scatter (FSC and SSC) parameters, and doublets were removed. The Median Fluorescent Intensity (MFI) of the appropriate channel was calculated for the live single cells from each group. The MFI was plotted versus antibody concentration in Prism software (V6.01) and kinetic parameters were obtained using a curve fit dose response function with four parameters. […] The lower EC₅₀ values indicate increased binding affinity to cell surface hCTLA-4.

[2] = biological target: T1, human CTLA-4 expressed on cells; assay: flow cytometry on HEK293 cells overexpressing human CTLA-4, serial dilution, MFI
Method: HEK293 cells were prepared as described above. […] Binding was measured using FACS.

Row | Binder | EC50 [1] [nM] | other results
1 | B1 | 0.27 | –
2 | B2 | 0.52 | –
3 | B3 | 0.42 | –
4 | B4 | 0.39 | –
5 | B5 | 0.24 | –
6 | B6 | 0.15 | –
7 | B7 | 0.18 | –
8 | B8 | 0.16 | –
9 | B9 | 0.26 | –
10 | B10 | 0.24 | –
11 | B11 | 0.21 | –
12 | B12 | 0.24 | –
13 | B13 | 0.22 | –
14 | B14 | 0.32 | –
15 | B15 | 0.32 | –
16 | B16 | 0.27 | –

Row | Binder | EC50 [1] [nM] | other results
17 | B17 | 0.31 | –
18 | B18 | 0.21 | –
19 | B19 | 0.12 | –
20 | B20 | 0.19 | –
21 | B21 | 0.22 | –
22 | B22 | 0.09 | –
23 | B23 | 0.22 | –
24 | B24 | 0.2 | –
25 | B25 | 0.34 | –
26 | B26 | 0.35 | –
27 | B27 | 0.2 | –
28 | B28 | 0.31 | –
29 | B29 | – | EC50 (read off the curve) [2]: ~0.2 nM
30 | B30 | – | binding result [2]: binds
31 | B31 | – | binding result [2]: binds
